B1: LacI^ΔCterm (lactose operon repressor LacI, tetramerization helix residues 339-360 replaced with a 6xHis tag) (domain or fragment, E. coli, UniProt P03023 1-338, looked up)
chain: MKPVTLYDVAEYAGVSYQTVSRVVNQASHVSAKTREKVEAAMAELNYIPNRVAQQLAGKQSLLIGVATSSLALHAPSQIVAAIKSRADQLGASVVVSMVERSGVEACKAAVHNLLAQRVSGLIINYPLDDQDAIAVEAACTNVPALFLDVSDQTPINSIIFSHEDGTRLGVEHLVALGHQQIALLAGPLSSVSARLRLAGWHKYLTRNQIQPIAEREGDWSAMSGFQQTMQMLNEGIVPTAMLVANDQMALGAMRAITESGLRVGADISVVGYDDTEDSSCYIPPLTTIKQDFRLLGQTSVDRLLQLSQGQAVKGNQLLPVSLVKRKTTLAPNTQTAS
notes: Lactose operon repressor LacI, E. coli, 360 amino acid monomer; the native 22 C-terminal amino acids (tetramerization helix, residues 339-360) are replaced with a 6xHis tag, the rest is wild type; only the replaced stretch 339-360 is printed; source: E. coli TOP10 (pBAD24, arabinose-induced), purified (HisTrap HP, Superdex 200 SEC); not shown: His6, C-terminal, kept
B2: LacI^Dimer (LacI^ΔCterm with C107A, C140A; Cys281 retained) (domain or fragment, E. coli, UniProt P03023 1-338, looked up)
chain: MKPVTLYDVAEYAGVSYQTVSRVVNQASHVSAKTREKVEAAMAELNYIPNRVAQQLAGKQSLLIGVATSSLALHAPSQIVAAIKSRADQLGASVVVSMVERSGVEAAKAAVHNLLAQRVSGLIINYPLDDQDAIAVEAAATNVPALFLDVSDQTPINSIIFSHEDGTRLGVEHLVALGHQQIALLAGPLSSVSARLRLAGWHKYLTRNQIQPIAEREGDWSAMSGFQQTMQMLNEGIVPTAMLVANDQMALGAMRAITESGLRVGADISVVGYDDTEDSSCYIPPLTTIKQDFRLLGQTSVDRLLQLSQGQAVKGNQLLPVSLVKRKTTLAPNTQTAS
notes: Lactose operon repressor LacI, E. coli; residues 339-360 replaced with a 6xHis tag; Cys107 and Cys140 replaced with alanine, Cys281 retained; source: E. coli TOP10 (pBAD24, arabinose-induced), purified (HisTrap HP, Superdex 200 SEC); not shown: His6, C-terminal, kept

Tests used:
[1] = tested on: LacIDimer-S28C (Escherichia coli); assay: EMSA; conditions: apparent Kd; 3 mM MgCl2; EMSA: 1 nM DNA, 0.5-100 nM LacI, 10 mM Tris pH 7.5, 50 mM NaCl, 3 mM MgCl2, 1 mM TCEP, 0.1 mg/mL BSA, 5% glycerol, room temperature 1 h; TIRF: 100 mM phosphate
[2] = molecular target: the molecule itself; assay: SEC; analytical gel filtration on HiLoad 16/600 Superdex 200, 0.2 mL/min, buffer C (200 mM Tris-HCl pH 7.5, 200 mM KCl, 1 mM EDTA, 0.5 mM TCEP); column calibrated with proteins of known molecular weight; dimer to monomers

| Molecule | Kd [1] [nM] | stoichiometry N [2] |
| --- | --- | --- |
| 5'-Cy5 O1 operator dsDNA | 5.63 | – |
| B1 | – | 2 |
| B2 | – | 2 |

From PMC5983854, “Structure-guided approach to site-specific fluorophore labeling of the lac repressor LacI” (PLoS ONE, 2018)
